Assay results from IntAct's records for PubMed 17174311.

B1: Serine/threonine-protein kinase PLK4 (Mus musculus), Q64702 (parent)
chain: MAACIGERIEDFKVGNLLGKGSFAGVYRAESIHTGLEVAIKMIDKKAMYKAGMVQRVQNEVKIHCQLKHPSVLELYNYFEDNNYVYLVLEMCHNGEMNRYLKNRMKPFSEREARHFMHQIITGMLYLHSHGILHRDLTLSNILLTRNMNIKIADFGLATQLNMPHEKHYTLCGTPNYISPEIATRSAHGLESDIWSLGCMFYTLLIGRPPFDTDTVKNTLNKVVLADYEMPAFLSREAQDLIHQLLRRNPADRLSLSSVLDHPFMSRNPSPKSKDVGTVEDSMDSGHATLSTTITASSGTSLSGSLLDRRLLVGQPLPNKITVFQKNKNSSDFSSGDGSNFCTQWGNPEQEANSRGRGRVIEDAEERPHSRYLRRAHSSDRASPSNQSRAKTYSVERCHSVEMLSKPRRSLDENQHSSNHHCLGKTPFPFADQTPQMEMVQQWFGNLQMNAHLGETNEHHTVSPNRDFQDYPDLQDTLRNAWTDTRASKNADTSANVHAVKQLSAMKYMSAHHHKPEVMPQEPGLHPHSEQSKNRSMESTLGYQKPTLRSITSPLIAHRLKPIRQKTKKAVVSILDSEEVCVELLRECASEGYVKEVLQISSDGTMITVYYPNDGRGFPLADRPPLPTDNISRYSFDNLPEKYWRKYQYASRFIQLVRSKTPKITYFTRYAKCILMENSPGADFEVWFYDGAKIHKTENLIHIIEKTGISYNLKNENEVTSLKEEVKVYMDHANEGHRICLSLESVISEEEKRSRGSSFFPIIVGRKPGNTSSPKALSAPPVDPSCCKGEQASASRLSVNSAAFPTQSPGLSPSTVTVEGLGHTATATGTGVSSSLPKSAQLLKSVFVKNVGWATQLTSGAVWVQFNDGSQLVVQAGVSSISYTSPDGQTTRYGENEKLPEYIKQKLQCLSSILLMFSNPTPNFQ

Variants of: B1
Conditions: with MBP

| effect of a mutation on the interaction | Variant |
| --- | --- |
| disrupting interaction | D154N |

Variants of: B1
Conditions: with ccnb3_human CCNB3, Q8WWL7
Chain of ccnb3_human CCNB3, Q8WWL7 (Q8WWL7 whole entry): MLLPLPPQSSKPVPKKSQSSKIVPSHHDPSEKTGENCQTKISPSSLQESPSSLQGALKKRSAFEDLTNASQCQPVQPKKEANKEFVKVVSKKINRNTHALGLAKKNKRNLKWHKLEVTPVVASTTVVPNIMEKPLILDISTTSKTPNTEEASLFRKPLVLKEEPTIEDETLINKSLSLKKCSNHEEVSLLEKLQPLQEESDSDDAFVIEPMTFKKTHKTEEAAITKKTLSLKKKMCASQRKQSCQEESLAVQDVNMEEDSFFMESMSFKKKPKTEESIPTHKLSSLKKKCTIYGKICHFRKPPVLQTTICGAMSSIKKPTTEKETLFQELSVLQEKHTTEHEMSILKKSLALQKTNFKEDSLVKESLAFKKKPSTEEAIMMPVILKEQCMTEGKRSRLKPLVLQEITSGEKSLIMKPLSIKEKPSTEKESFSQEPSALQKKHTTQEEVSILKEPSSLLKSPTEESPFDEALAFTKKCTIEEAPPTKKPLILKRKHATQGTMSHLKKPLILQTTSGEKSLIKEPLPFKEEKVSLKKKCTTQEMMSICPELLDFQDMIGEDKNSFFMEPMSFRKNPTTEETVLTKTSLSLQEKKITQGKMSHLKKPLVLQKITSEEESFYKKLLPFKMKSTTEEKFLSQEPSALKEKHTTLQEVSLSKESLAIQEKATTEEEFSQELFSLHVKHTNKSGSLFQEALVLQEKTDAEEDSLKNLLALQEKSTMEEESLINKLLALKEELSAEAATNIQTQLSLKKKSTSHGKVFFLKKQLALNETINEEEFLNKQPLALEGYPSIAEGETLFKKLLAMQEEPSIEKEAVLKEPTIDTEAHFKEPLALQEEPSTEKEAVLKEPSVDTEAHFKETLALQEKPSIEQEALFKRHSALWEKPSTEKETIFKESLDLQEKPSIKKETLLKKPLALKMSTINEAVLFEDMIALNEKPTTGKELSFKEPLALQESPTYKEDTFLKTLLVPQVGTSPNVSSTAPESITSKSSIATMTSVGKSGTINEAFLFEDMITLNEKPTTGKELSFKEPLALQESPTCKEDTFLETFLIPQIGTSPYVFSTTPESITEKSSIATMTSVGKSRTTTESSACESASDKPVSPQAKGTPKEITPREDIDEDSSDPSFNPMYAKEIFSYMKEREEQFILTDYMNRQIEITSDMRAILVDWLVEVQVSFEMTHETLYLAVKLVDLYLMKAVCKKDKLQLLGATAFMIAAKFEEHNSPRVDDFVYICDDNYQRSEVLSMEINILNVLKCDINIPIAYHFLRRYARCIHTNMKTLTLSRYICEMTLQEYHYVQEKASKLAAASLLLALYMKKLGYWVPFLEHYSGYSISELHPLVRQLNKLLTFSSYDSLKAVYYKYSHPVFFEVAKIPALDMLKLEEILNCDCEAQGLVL

| effect of a mutation on the interaction | Variant |
| --- | --- |
| disrupting interaction | D154N |
